The supplement of paper PMC10724198
± gives the standard deviation of the averaged measurements.

Columns and labels:
Saccharomyces cerevisiae [1] = test: protein stability index of tFT-peptide fusion (C-terminal peptide) (PSI (0-1 scale)); higher = more stable (slower turnover)
Method: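 MPS profiling in S. cerevisiae of the tFT-X12 degron library: putative degron peptides plus stable controls, 12 aa, fused to the C-terminus of a sfGFP-mCherry timer. Cells are FACS-sorted into 8 mCherry/sfGFP bins and deep-sequenced. PSI runs from 0 (unstable) to 1 (stable). Backgrounds are wild type, das1Δ and doa10Δ at 30 °C, and wild type, das1Δ, cdc34-1 and cdc53-1 at 37 °C; 2-3 technical replicates each.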

Saccharomyces cerevisiae [2] = test: as above; conditions: genetic background: wild type; temperature: 30 C
[3] = genetic background: cdc34-1, temperature: 37 C
[4] = genetic background: cdc53-1, temperature: 37 C
[5] = genetic background: das1 deletion, temperature: 30 C
[6] = genetic background: das1 deletion, temperature: 37 C
[7] = genetic background: doa10 deletion, temperature: 30 C
[8] = genetic background: wild type, temperature: 30 C
[9] = genetic background: wild type, temperature: 37 C
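Note: PSI is a weighted mean of sequencing reads over stability bins, variants kept only with over 10 reads, mCherry proximal and sfGFP distal, peptide attached via GGGS linker.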

| Sequence | protein stability index (Saccharomyces cerevisiae [1]; [3]) | protein stability index (Saccharomyces cerevisiae [1]; [4]) | protein stability index (Saccharomyces cerevisiae [1]; [5]) | protein stability index (Saccharomyces cerevisiae [1]; [6]) | protein stability index (Saccharomyces cerevisiae [1]; [7]) | protein stability index (Saccharomyces cerevisiae [1]; [8]) | protein stability index (Saccharomyces cerevisiae [1]; [9]) | protein stability index (Saccharomyces cerevisiae [2]) |
| --- | --- | --- | --- | --- | --- | --- | --- | --- |
| AFYLCLYFMPVS | 0.454 ± 0.026 | 0.548 ± 0.036 | 0.371 ± 0.028 | 0.503 ± 0.012 | 0.358 ± 0.032 | 0.367 ± 0.029 | 0.52 ± 0.0093 | 0.4375 ± 0.0033 |
| AGAFRIVWWALR | 0.652 ± 0.034 | 0.6935 ± 0.00096 | 0.578 ± 0.027 | 0.711 ± 0.0098 | 0.586 ± 0.02 | 0.578 ± 0.015 | 0.68 ± 0.014 | 0.528 ± 0.073 |
| ALFLLWVVMHDV | 0.2376 ± 0.0022 | 0.337 ± 0.021 | 0.247 ± 0.036 | 0.421 ± 0.018 | 0.195 ± 0.024 | 0.219 ± 0.035 | 0.397 ± 0.022 | 0.343 ± 0.011 |
| ALLWEFVPCSVR | 0.521 ± 0.032 | 0.52 ± 0.0073 | 0.354 ± 0.036 | 0.56 ± 0.0061 | 0.3287 ± 0.0015 | 0.375 ± 0.022 | 0.5347 ± 0.0023 | 0.453 ± 0.015 |
| ALRGLWFPFSCL | 0.66 ± 0.023 | 0.765 ± 0.0018 | 0.68 ± 0.024 | 0.8093 ± 0.0029 | 0.168 ± 0.032 | 0.193 ± 0.028 | 0.283 ± 0.01 | 0.393 ± 0.022 |
| ALSGLARFIVCH | 0.308 ± 0.0074 | 0.358 ± 0.019 | 0.272 ± 0.043 | 0.4268 ± 0.0034 | 0.2054 ± 0.0015 | 0.243 ± 0.031 | 0.392 ± 0.016 | 0.428 ± 0.026 |
| ALVGEVLWFQLV | 0.684 ± 0.039 | 0.7569 ± 0.006 | 0.651 ± 0.023 | 0.749 ± 0.013 | 0.317 ± 0.0039 | 0.357 ± 0.034 | 0.586 ± 0.029 | 0.471 ± 0.0021 |
| APLLPPALALTC | 0.533 ± 0.029 | 0.516 ± 0.038 | 0.389 ± 0.034 | 0.5268 ± 0.0035 | 0.3512 ± 0.00062 | 0.407 ± 0.028 | 0.484 ± 0.02 | 0.505 ± 0.025 |
| ARGVAAAFVSGF | 0.696 ± 0.043 | 0.7725 ± 0.0057 | 0.657 ± 0.03 | 0.746 ± 0.016 | 0.661 ± 0.023 | 0.653 ± 0.0078 | 0.725 ± 0.03 | 0.595 ± 0.23 |
| ARRGHNCAAVFL | 0.6953 ± 0.0068 | 0.7426 ± 0.0071 | 0.666 ± 0.026 | 0.7447 ± 0.0047 | 0.65 ± 0.022 | 0.663 ± 0.024 | 0.718 ± 0.0074 | 0.643 ± 0.3 |
| ARTWVVLLICGH | 0.4159 ± 0.0012 | 0.479 ± 0.025 | 0.355 ± 0.032 | 0.563 ± 0.04 | 0.28 ± 0.0056 | 0.328 ± 0.019 | 0.531 ± 0.045 | 0.423 ± 0.033 |
| ASWRYMFPVTLG | 0.576 ± 0.031 | 0.574 ± 0.045 | 0.555 ± 0.039 | 0.685 ± 0.031 | 0.383 ± 0.021 | 0.306 ± 0.039 | 0.4618 ± 0.0041 | 0.367 ± 0.032 |
| AVCVVVMAVFVG | 0.339 ± 0.056 | 0.4098 ± 0.0026 | 0.297 ± 0.028 | 0.417 ± 0.012 | 0.293 ± 0.022 | 0.3 ± 0.012 | 0.397 ± 0.021 | 0.3646 ± 0.0028 |
| CASVCCFFAWIV | 0.571 ± 0.028 | 0.623 ± 0.011 | 0.46 ± 0.046 | 0.5941 ± 0.0019 | 0.299 ± 0.017 | 0.323 ± 0.0068 | 0.4749 ± 0.00052 | 0.416 ± 0.06 |
| CCVFFLLCLSLF | 0.419 ± 0.016 | 0.44 ± 0.024 | 0.341 ± 0.01 | 0.469 ± 0.023 | 0.353 ± 0.012 | 0.313 ± 0.0084 | 0.4223 ± 0.0038 | 0.354 ± 0.044 |
| CFFGFRAGLFLG | 0.507 ± 0.0082 | 0.7205 ± 0.0047 | 0.593 ± 0.018 | 0.754 ± 0.052 | 0.176 ± 0.002 | 0.155 ± 0.0076 | 0.247 ± 0.072 | 0.214 ± 0.016 |
| CFFVSLFFYIDC | 0.207 ± 0.055 | 0.296 ± 0.0032 | 0.215 ± 0.021 | 0.392 ± 0.0061 | 0.191 ± 0.014 | 0.203 ± 0.042 | 0.35 ± 0.0022 | 0.323 ± 0.011 |
| CFGSALLKCWLC | 0.602 ± 0.037 | 0.726 ± 0.018 | 0.665 ± 0.013 | 0.7708 ± 0.0038 | 0.299 ± 0.002 | 0.303 ± 0.032 | 0.44 ± 0.0044 | 0.406 ± 0.035 |
| CFLSWSLRFFIL | 0.387 ± 0.094 | 0.507 ± 0.022 | 0.482 ± 0.031 | 0.554 ± 0.034 | 0.132 ± 0.0019 | 0.118 ± 0.0054 | 0.139 ± 0.013 | 0.206 ± 0.011 |
